# Patent US20240018502A1
# Biological target: plasma purified human complement protein C3 (human) (UniProt P01024)
# Assay: cell-based or functional assay
# Chain of plasma purified human complement protein C3 (human) (P01024 23-667, chain 1 of 2): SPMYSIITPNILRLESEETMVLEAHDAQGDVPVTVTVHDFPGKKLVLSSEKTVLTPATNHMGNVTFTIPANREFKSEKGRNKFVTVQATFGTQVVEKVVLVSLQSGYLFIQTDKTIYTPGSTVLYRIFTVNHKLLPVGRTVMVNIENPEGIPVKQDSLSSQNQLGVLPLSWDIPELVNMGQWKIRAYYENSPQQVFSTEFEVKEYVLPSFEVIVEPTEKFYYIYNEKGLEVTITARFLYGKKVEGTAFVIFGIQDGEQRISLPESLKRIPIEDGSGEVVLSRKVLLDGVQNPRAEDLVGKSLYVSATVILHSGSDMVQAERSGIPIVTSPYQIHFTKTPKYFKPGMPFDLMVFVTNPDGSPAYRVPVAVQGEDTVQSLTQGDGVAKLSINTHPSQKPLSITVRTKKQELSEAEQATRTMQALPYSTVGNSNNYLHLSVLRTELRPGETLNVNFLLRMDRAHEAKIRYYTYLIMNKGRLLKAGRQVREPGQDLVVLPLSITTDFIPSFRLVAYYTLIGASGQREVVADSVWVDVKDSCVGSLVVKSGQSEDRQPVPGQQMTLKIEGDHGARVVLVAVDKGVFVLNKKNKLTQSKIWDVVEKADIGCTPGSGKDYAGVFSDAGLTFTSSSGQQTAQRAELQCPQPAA
# Chain of plasma purified human complement protein C3 (human) (P01024 672-1663, chain 2 of 2): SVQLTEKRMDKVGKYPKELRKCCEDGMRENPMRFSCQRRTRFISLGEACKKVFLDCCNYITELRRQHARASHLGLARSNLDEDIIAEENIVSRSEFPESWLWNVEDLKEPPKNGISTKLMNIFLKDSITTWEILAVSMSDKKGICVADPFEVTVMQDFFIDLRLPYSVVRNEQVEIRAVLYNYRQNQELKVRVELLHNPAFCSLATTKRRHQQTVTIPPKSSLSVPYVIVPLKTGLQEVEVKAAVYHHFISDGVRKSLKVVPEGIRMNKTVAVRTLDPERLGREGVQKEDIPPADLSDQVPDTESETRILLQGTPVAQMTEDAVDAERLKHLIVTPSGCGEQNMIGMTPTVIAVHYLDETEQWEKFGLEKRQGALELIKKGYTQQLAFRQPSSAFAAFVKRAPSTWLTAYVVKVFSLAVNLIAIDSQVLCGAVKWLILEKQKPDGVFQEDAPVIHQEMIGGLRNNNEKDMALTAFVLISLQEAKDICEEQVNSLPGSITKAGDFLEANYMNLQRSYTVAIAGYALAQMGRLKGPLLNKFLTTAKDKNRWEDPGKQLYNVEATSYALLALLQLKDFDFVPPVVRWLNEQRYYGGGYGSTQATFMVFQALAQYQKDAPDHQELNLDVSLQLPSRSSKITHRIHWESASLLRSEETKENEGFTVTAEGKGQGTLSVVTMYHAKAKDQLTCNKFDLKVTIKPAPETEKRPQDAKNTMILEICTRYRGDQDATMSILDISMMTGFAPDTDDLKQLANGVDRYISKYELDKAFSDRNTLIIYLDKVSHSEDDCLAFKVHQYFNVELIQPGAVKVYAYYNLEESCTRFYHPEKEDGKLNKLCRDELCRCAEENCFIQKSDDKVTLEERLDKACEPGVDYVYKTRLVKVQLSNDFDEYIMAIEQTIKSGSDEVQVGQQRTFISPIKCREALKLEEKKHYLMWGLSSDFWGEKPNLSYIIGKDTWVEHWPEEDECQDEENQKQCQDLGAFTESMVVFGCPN
row,EC50 of hC3 cleavage,Binder
1,119 nM,MTSP-1 C122S/G193E (enzyme) VVGGTDADEGEWPWQVSLHALGQGHICGASLISPNWLVSAAHCYIDDRGFRYSDPTQWTAFLGLHDQSQRSAPGVQERRLKRIISHPFFNDFTFDYDIALLELEKPAEYSSMVRPISLPDASHVFPAGKAIWVTGWGHTQYGGTGALILQKGEIRVINQTTCENLLPQQITPRMMCVGFLSGGVDSCQEDSGGPLSSVEADGRIFQAGVVSWGDGCAQRNKPGVYTRLPLFRDWIKENTGV
2,35.4 nM,MTSP-1 H40R/I41H/F97D/F99L/C122S/Q192G (enzyme) VVGGTDADEGEWPWQVSLHALGQGRHCGASLISPNWLVSAAHCYIDDRGFRYSDPTQWTAFLGLHDQSQRSAPGVQERRLKRIISHPFFNDDTLDYDIALLELEKPAEYSSMVRPISLPDASHVFPAGKAIWVTGWGHTQYGGTGALILQKGEIRVINQTTCENLLPQQITPRMMCVGFLSGGVDSCGGDSGGPLSSVEADGRIFQAGVVSWGDGCAQRNKPGVYTRLPLFRDWIKENTGV
3,59.6 nM,MTSP-1 H40R/I41H/C122S/G151N (enzyme) VVGGTDADEGEWPWQVSLHALGQGRHCGASLISPNWLVSAAHCYIDDRGFRYSDPTQWTAFLGLHDQSQRSAPGVQERRLKRIISHPFFNDFTFDYDIALLELEKPAEYSSMVRPISLPDASHVFPAGKAIWVTGWGHTQYGGTNALILQKGEIRVINQTTCENLLPQQITPRMMCVGFLSGGVDSCQGDSGGPLSSVEADGRIFQAGVVSWGDGCAQRNKPGVYTRLPLFRDWIKENTGV
4,51.7 nM,MTSP-1 H40R/I41H/F97E/C122S (enzyme) VVGGTDADEGEWPWQVSLHALGQGRHCGASLISPNWLVSAAHCYIDDRGFRYSDPTQWTAFLGLHDQSQRSAPGVQERRLKRIISHPFFNDETFDYDIALLELEKPAEYSSMVRPISLPDASHVFPAGKAIWVTGWGHTQYGGTGALILQKGEIRVINQTTCENLLPQQITPRMMCVGFLSGGVDSCQGDSGGPLSSVEADGRIFQAGVVSWGDGCAQRNKPGVYTRLPLFRDWIKENTGV
5,110 nM,MTSP-1 H40R/I41H/F97D/C122S/G151N (enzyme) VVGGTDADEGEWPWQVSLHALGQGRHCGASLISPNWLVSAAHCYIDDRGFRYSDPTQWTAFLGLHDQSQRSAPGVQERRLKRIISHPFFNDDTFDYDIALLELEKPAEYSSMVRPISLPDASHVFPAGKAIWVTGWGHTQYGGTNALILQKGEIRVINQTTCENLLPQQITPRMMCVGFLSGGVDSCQGDSGGPLSSVEADGRIFQAGVVSWGDGCAQRNKPGVYTRLPLFRDWIKENTGV
6,85.7 nM,MTSP-1 C122S/G151N/G193A (enzyme) VVGGTDADEGEWPWQVSLHALGQGHICGASLISPNWLVSAAHCYIDDRGFRYSDPTQWTAFLGLHDQSQRSAPGVQERRLKRIISHPFFNDFTFDYDIALLELEKPAEYSSMVRPISLPDASHVFPAGKAIWVTGWGHTQYGGTNALILQKGEIRVINQTTCENLLPQQITPRMMCVGFLSGGVDSCQADSGGPLSSVEADGRIFQAGVVSWGDGCAQRNKPGVYTRLPLFRDWIKENTGV
7,78.1 nM,MTSP-1 F97D/F99L/C122S/Q192G (enzyme) VVGGTDADEGEWPWQVSLHALGQGHICGASLISPNWLVSAAHCYIDDRGFRYSDPTQWTAFLGLHDQSQRSAPGVQERRLKRIISHPFFNDDTLDYDIALLELEKPAEYSSMVRPISLPDASHVFPAGKAIWVTGWGHTQYGGTGALILQKGEIRVINQTTCENLLPQQITPRMMCVGFLSGGVDSCGGDSGGPLSSVEADGRIFQAGVVSWGDGCAQRNKPGVYTRLPLFRDWIKENTGV
8,22.6 nM,MTSP-1 D96_F97delinsWYY/T98P/F99L/C122S (enzyme) VVGGTDADEGEWPWQVSLHALGQGHICGASLISPNWLVSAAHCYIDDRGFRYSDPTQWTAFLGLHDQSQRSAPGVQERRLKRIISHPFFNWYYPLDYDIALLELEKPAEYSSMVRPISLPDASHVFPAGKAIWVTGWGHTQYGGTGALILQKGEIRVINQTTCENLLPQQITPRMMCVGFLSGGVDSCQGDSGGPLSSVEADGRIFQAGVVSWGDGCAQRNKPGVYTRLPLFRDWIKENTGV
